Drawing on patent WO2023190851A1, this text covers binding inhibition rate (%) for eight substances.

The test addresses SARS-CoV-2 Spike RBD, His Tag (B.1.1.529/Omicron) (SARS-CoV-2, Omicron B.1.1.529 (BA.1) lineage) (UniProt P0DTC2).
As for ADG2 (antibody), the binding inhibition rate (%) at 2 μg/ml was under 30%.

As to AZD1061 (antibody), the binding inhibition rate (%) at 2 μg/ml is under 30%.

Consider AZD8895 (antibody), for which the binding inhibition rate (%) at 2 μg/ml is under 30%.

LY_CoV16 (antibody) registered a binding inhibition rate (%) at 2 μg/ml of under 30%.

The substance LY_CoV555 (antibody) had a binding inhibition rate (%) at 2 μg/ml of under 30%.

REGN10933 (antibody) registered a binding inhibition rate (%) at 2 μg/ml of under 30%.

Take REGN10987 (antibody): the binding inhibition rate (%) at 2 μg/ml was under 30%.

S309 (antibody) displayed a binding inhibition rate (%) at 2 μg/ml of under 30%.
